Source: publication doi:10.1101/2020.01.21.914671

What was measured:
Assay in all cases: ITC
[1] = molecular target: human Puma BH3 motif peptide (26-mer) (human)
[2] = molecular target: human Hrk BH3 motif peptide (26-mer) (human)
[3] = molecular target: human Bad BH3 motif peptide (26-mer) (human)
[4] = molecular target: human Bmf BH3 motif peptide (26-mer) (human)

Substance | fold reduction in binding against wild type TANV16L [1] | fold reduction in binding against wild type TANV16L [2] | fold reduction in binding against wild type TANV16L [3] | fold reduction in binding against wild type TANV16L [4]
TANV16L R90A lacking the C-terminal 23 residues (domain or fragment) | 2 fold | 2 fold | – | –
TANV16L K52A lacking the C-terminal 23 residues (domain or fragment) | – | – | 27 fold | 20 fold
